In patent US20210292423A1 (published 2021):
Residue numbers refer to the chain shown, from its start. Values belong to the binder of their own block, whether it stands above or below them.

What was measured:
[1] = target: T1, human CD3ε/δ-Fc fusion protein (soluble recombinant CD3ε/δ complex) (human, UniProt P04234 22-105); experiment: SPR, CD3-Fc captured, Fab 100 nM
T1 construct: also called huCD3ε/δ; huCD3; not shown: hinge, CH2, CH3 of human IgG with tag
Procedure: (§1) Binding was tested by SPR using a BIAcore3000 instrument run with HBS-EP buffer. Recombinant huCD3 proteins (ε/δ (PB01226), ε/γ (PB01225)) were captured at 10 μl/min via Fc-tag by anti-human Fc capture antibody MAB1302 (Millipore) immobilized on a CM5 sensor chip. Anti-CD3 Fabs were used as analytes at 100 nM with association and dissociation times of 240 sec and 300 sec, respectively at 30 μl/min. After each cycle the surfaces were regenerated by a 2 min pulse of 10 mM glycine buffer pH2.5.

[2] = target: recombinant huCD3ε/γ protein with Fc-tag (PB01225) (human, UniProt P07766 23-126; P09693 23-116); experiment: SPR, CD3-Fc captured, Fab 100 nM
Procedure: as §1

[3] = target: T2, human CD3δ expressed alone on HEK293F cells (human, UniProt P04234 22-171); experiment: flow cytometry, HEK293F transfected with huCD3δ
T2 construct: entry includes the signal peptide; also called huCD3δ
Summary of the method: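 HEK293F cells transfected with huCD3δ alone, harvested 1–3 days post-transfection. Cells stained with 1 μg antibody for 30 min at 4 °C, then anti-human IgG-FITC or anti-human kappa-PE secondary plus 7-AAD for 15 min at 4 °C; binding read by flow cytometry.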

[4] = target: T3, human CD3ε expressed alone on HEK293F cells (human, UniProt P07766 23-207); experiment: flow cytometry, transfected HEK293F
T3 construct: also called huCD3ε
Procedure: (§2) To analyze binding of antibodies to human CD3ε and human CD3δ expressed on the surface of cells, HEK293F cells were transfected with both constructs either alone or in co-transfection and signals were measured by flow cytometry. For transfection procedure FuGENE HD Transfection Reagent (Promega, #E2311) was used according to manufacturer's protocol.
(§3) Antibodies for staining were seeded at 1 μg in 50 μl per well Stain Buffer with FBS (BD Pharmingen) in 96-well U-bottom suspension culture plates (Greiner bio-one). Harvested transfected cells were resuspended in Stain Buffer with FBS and were added at 50 μl per well to the antibodies. Cells were incubated at 4° C. in the dark for 30 min and were washed twice. 0.5 μg secondary antibody Goat F(ab′)2 Anti-Human IgG-FITC (Beckman Coulter, #732598) or Goat F(ab′)2 Anti-Human kappa-PE (Southern Biotech, #206209), respectively, in combination with 0.5 μg 7-AAD per well was added in 100 μl Stain Buffer with FBS. Cells were incubated at 4° C. in the dark for 15 min and were washed twice. For measurement, cells were resuspended in 200 μl Stain Buffer with FBS. Cells were measured using the MACSQuant (Miltenyi Biotec) or LSRII (BD) flow cytometer, respectively. Further data analyses were performed using the FlowJo software (Tree Star, Inc.).

[5] = target: T4, human CD3ε and CD3δ co-expressed on HEK293F cells (human, UniProt P07766 23-207; P04234 22-171); experiment: flow cytometry, transfected HEK293F
T4 construct: also called huCD3ε/δ (transfected cells); huCD3e + huCD3d
Procedure: as §2, §3

[6] = target: T5, human CD3 (TCR complex) on primary human T cells or Jurkat cells (human, UniProt P07766 23-207); experiment: flow cytometry, primary human T cells
T5 construct: on the cells it stands in the whole TCR/CD3 complex; also called Jurkat E6-1 (expressing human TCR)
Procedure: The binding capacity of the CD3-Fabs was determined by flow cytometry. Primary human T cells were used as target cells. Therefore, peripheral blood mononuclear cells (PBMCs) were isolated from 200 ml peripheral blood of healthy donors treated with EDTA by Ficoll density centrifugation. 15 ml Histopaque (Sigma-Aldrich) was preloaded on a 50 ml Leucosep-Tube (Greiner bio-one). Blood was diluted with autoMACS Rinsing Buffer+1% BSA (Miltenyi Biotec) and loaded on the membrane of a total of ten prepared tubes. Tubes were centrifuged without brake for 10 min at 1000 xg. PBMCs were collected and washed with autoMACS Rinsing Buffer+1% BSA three times. Finally, PBMCs were resuspended in autoMACS Running Buffer (Miltenyi Biotec) for isolation of T lymphocytes by autoMACSpro technology using the Pan T Cell isolation Kit (Miltenyi Biotec) according to manufacturer's instructions. Purity of separated T cells was analyzed by MACSQuant flow cytometry using the human 7-Color Immunophenotyping Kit (Miltenyi Biotec). Isolated T cells were resuspended in Stain Buffer with FBS (BD Pharmingen) and 1E5 cells in 100 μl per well were seeded in 96-well U-bottom suspension culture plates (Greiner bio-one). Fab antibodies were diluted 1:3 in serial in PBS (Invitrogen) and 5 μl each were added to the cells at a final maximum concentration of 30000 ng/ml. The assay was incubated for 45 min at 4° C. Cells were washed twice with Stain Buffer with FBS and 1 μg secondary antibody Goat F(ab′)2 Anti-Human kappa-FITC (Beckman Coulter, #732621) per well was added in 100 μl Stain Buffer with FBS per well. The assay was incubated for 20 min at 4° C. and washed twice afterwards. Cells were resuspended in 150 μl Stain Buffer with FBS per well and were measured using the MACSQuant (Miltenyi Biotec) or LSRII (BD) flow cytometer. Further data analyses were performed using the FlowJo software (Tree Star, Inc.). Read out was percentage of cells positive for antibody binding. Cells treated only with the secondary but no primary antibody were used to set the gates. EC50 Curves were calculated by XLfit (Algorithm 205), EC50 values were calculated as inflection point of the slope (data are shown in table 6).

[7] = target: T1, human CD3ε/δ-Fc fusion protein (soluble …); experiment: SPR Biacore, Fab
Procedure: (§4) Binding affinities of anti-CD3 binding Fabs or CODV-Fabs were measured by surface plasmon resonance (SPR) using a Biacore3000 instrument (GE Healthcare). Assay buffer was HBS-EP (BR-1001-88, GE Healthcare). Capture of CD3ε/δ-Fc fusion proteins was achieved using the human antibody capture kit (GE Healthcare). […] The CD3εδ-Fc fusions proteins were captured at 10 μl/min to approx. 70 RU to yield Rmax values of 30 RU. Binding kinetics with the anti-CD3 Fabs or CODV-Fabs was measured at 30 μl/min for 240 sec. and 600 sec. for association and dissociation phase, respectively. Twofold dilutions of Fabs from 3 to 400 nM in assay buffer were used. All Fab concentrations were run in duplicate together with duplicate buffer blanks for double referencing. Regeneration of the capture surface was performed with a 1 min injection of 3M MgCl2 solution at 30 μl/min. For data analysis the BIAevaluation software v.4.1 (GE Healthcare) was used. Data were fit globally using a 1:1 Langmuir model with mass transfer.

[8] = target: T1, human CD3ε/δ-Fc fusion protein (soluble …); experiment: SPR Biacore, Fab; remark: listed apart in the source
Procedure: as §4

[9] = target: T1, human CD3ε/δ-Fc fusion protein (soluble …); experiment: SPR Biacore, CD3εδ-Fc captured, Fab analyte
Procedure: as §4

[10] = target: human CD123 (IL3RA) on cells (human, UniProt P26951 19-378); experiment: cell-based or functional assay
[11] = target: T1, human CD3ε/δ-Fc fusion protein (soluble …); experiment: SPR Biacore, CODV-Fab
Procedure: as §4

T2 sequence (P04234 22-171 limits assumed, stated change not applied): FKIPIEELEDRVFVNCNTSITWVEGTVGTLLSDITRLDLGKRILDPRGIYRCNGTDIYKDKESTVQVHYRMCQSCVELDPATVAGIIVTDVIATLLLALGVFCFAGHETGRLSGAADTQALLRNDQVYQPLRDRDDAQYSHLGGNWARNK
T1 sequence (chain, as listed by the source mutant, chain 1 of 2): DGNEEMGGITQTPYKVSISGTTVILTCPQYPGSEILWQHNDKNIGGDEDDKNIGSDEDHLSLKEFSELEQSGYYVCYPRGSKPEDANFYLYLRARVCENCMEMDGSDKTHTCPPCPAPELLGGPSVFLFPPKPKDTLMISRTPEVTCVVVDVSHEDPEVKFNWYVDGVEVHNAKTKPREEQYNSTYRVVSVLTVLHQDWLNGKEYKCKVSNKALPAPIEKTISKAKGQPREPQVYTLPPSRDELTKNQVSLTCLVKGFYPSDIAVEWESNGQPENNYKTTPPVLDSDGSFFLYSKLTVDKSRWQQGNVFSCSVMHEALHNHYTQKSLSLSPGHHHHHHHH
T1 sequence (P04234 22-105, stated change not applied, chain 2 of 2): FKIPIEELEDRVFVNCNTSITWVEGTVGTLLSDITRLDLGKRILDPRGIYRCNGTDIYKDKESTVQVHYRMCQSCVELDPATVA
Sequence of human CD123 (IL3RA) on cells (P26951 19-378): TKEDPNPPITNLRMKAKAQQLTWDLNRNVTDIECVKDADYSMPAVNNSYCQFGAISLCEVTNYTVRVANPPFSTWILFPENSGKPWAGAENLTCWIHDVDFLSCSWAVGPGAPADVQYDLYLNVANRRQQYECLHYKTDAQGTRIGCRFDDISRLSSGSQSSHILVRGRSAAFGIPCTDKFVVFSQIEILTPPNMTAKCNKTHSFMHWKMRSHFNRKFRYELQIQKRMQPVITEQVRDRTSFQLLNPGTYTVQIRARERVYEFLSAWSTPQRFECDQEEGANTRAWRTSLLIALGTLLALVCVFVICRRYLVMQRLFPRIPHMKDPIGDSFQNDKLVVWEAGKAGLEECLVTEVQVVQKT

RU of Fab binding at 100 nM [1]: 7 RU
RU of Fab binding at 100 nM [2]: 4 RU
% antibody positive transfected cells [4]: 68.6%
% antibody positive transfected cells [5]: 67.4%
EC50 [6]: 0.014 µM
Kd [8]: 0.008 µM
koff [8]: 0.00027 s⁻¹
kon [8]: 35000 M⁻¹ s⁻¹
Kd [9]: 0.0077 µM
koff [9]: 0.00027 s⁻¹
kon [9]: 35000 M⁻¹ s⁻¹
B3: 20G6-F3 Fab (Fab, V domains shown)
VH: EVQLVETGGSLVQPGKSLKLTCATSGFTFTKAWMHWVRQSPEKQLEWVAQIKDKSNSYATYYAESVKGRFTISRDDSKSTIYLQMNSLKEEDTAIYYCRGVYYALSPFDYWGQGVMVTVSS
VL: DVVMTQTPVSLSVSLGGQVSISCRSSQSLVHNNGNTYLSWYLQKPGQSPQSLIYKVSNRFSGFSDRFSGSGSGTDFTLKISRVDPDDLGVYYCGQGTQYPFTFGSGTKLEIKR
notes: also called BDW-20G6-F3
binding result [3]: no binding (tested: <20% of binding of huCD3e + huCD3d)

Kd [11]: 0.016 µM
koff [11]: 0.0019 s⁻¹
kon [11]: 120000 M⁻¹ s⁻¹
B4: CODV-Fab 7G3x4E7 antibody-like binding protein (bispecific antibody)
light: DVVMTQTPVSLSVSLGGQVSISCRSSQSLEHNNGNTYLSWYLQKPGQSPQPLIYKVSNRFSGISDRFSGSGSGTDFTLKISRVEPDDLGVYYCGQGTQYPFTFGPGTKLELKGQPKAAPDFVMTQSPSSLTVTAGEKVTMSCKSSQSLLNSGNQKNYLTWYLQKPGQPPKLLIYWASTRESGVPDRFTGSGSGTDFTLTISSVQAEDLAVYYCQNDYSYPYTFGGGTKLEIKTKGPSRTVAAPSVFIFPPSDEQLKSGTASVVCLLNNFYPREAKVQWKVDNALQSGNSQESVTEQDSKDSTYSLSSTLTLSKADYEKHKVYACEVTHQGLSSPVTKSFNRGEC
heavy: EVQLQQSGPELVKPGASVKMSCKASGYTFTDYYMKWVKQSHGKSLEWIGDIIPSNGATFYNQKFKGKATLTVDRSSSTAYMHLNSLTSEDSAVYYCTRSHLLRASWFAYWGQGTLVTVSASEVQVVETGGSLVQPGKSLKLTCATSGFTFSNAWMHWVRQSPEKQLEWVAQIKDKSNNYATYYAESLKGRFTISRDDPKRSIYLQMNSLREEDTAIYYCRYVHYGIGYAMDAWGQGTSVTVSSRTASTKGPSVFPLAPSSKSTSGGTAALGCLVKDYFPEPVTVSWNSGALTSGVHTFPAVLQSSGLYSLSSVVTVPSSSLGTQTYICNVNHKPSNTKVDKKVEPKSCDKTHTHHHHHH
notes: also called 7G3 × 4E7
Activity EC50 [ng/ml], cytotoxic assay on THP-1 with human T cells [10]: 12 ng/mL

Second part, the binder before the results:

B1: 4B4-D7 Fab (Fab, V domains shown)
VH: B3 VH with S10R, K16R, T30S, K31N, D53A, K54R, S57N, V101T, L105S, S106K
VL: B3 VL with N32D, Y41S, K44R, S51V, F63T, S68T, D84E
notes: also called BDW-4B4-D7
RU of Fab binding at 100 nM [1]: 11 RU
RU of Fab binding at 100 nM [2]: 3 RU
binding result [3]: no binding (tested: <20% of binding of huCD3e + huCD3d)
% antibody positive transfected cells [4]: 71.5%
% antibody positive transfected cells [5]: 69.5%
EC50 [6]: 0.0153 µM
Kd [7]: 0.00879 µM
koff [7]: 0.00285 s⁻¹
kon [7]: 326000 M⁻¹ s⁻¹
Kd [8]: 0.027 µM
koff [8]: 0.0029 s⁻¹
kon [8]: 110000 M⁻¹ s⁻¹
Kd [9]: 0.027 µM
koff [9]: 0.0029 s⁻¹
kon [9]: 110000 M⁻¹ s⁻¹

B2: 4E7-C9 Fab (Fab, V domains shown)
VH: EVQVVETGGSLVQPGKSLKLTCATSGFTFSNAWMHWVRQSPEKQLEWVAQIKDKSNNYATYYAESLKGRFTISRDDPKRSIYLQMNSLREEDTAIYYCRYVHYGIGYAMDAWGQGTSVTVSS
VL: B3 VL with V30E, S51P, F63I, D84E, S105P, I111L
notes: also called BDX-4E7-C9
RU of Fab binding at 100 nM [1]: 8 RU
RU of Fab binding at 100 nM [2]: 6 RU
binding result [3]: no binding (tested: <20% of binding of huCD3e + huCD3d)
% antibody positive transfected cells [4]: 69%
% antibody positive transfected cells [5]: 66.4%
EC50 [6]: 0.0062 µM
Kd [8]: 0.017 µM
koff [8]: 0.0015 s⁻¹
kon [8]: 89000 M⁻¹ s⁻¹
Kd [9]: 0.017 µM
koff [9]: 0.0016 s⁻¹
kon [9]: 89000 M⁻¹ s⁻¹

B5: CODV-Fab 7G3x18F5 antibody-like binding protein (bispecific antibody)
light: B4 light with V3L, E30V, N32T, P51L, F60L, Q98H, P105A
heavy: EVQLQQSGPELVKPGASVKMSCKASGYTFTDYYMKWVKQSHGKSLEWIGDIIPSNGATFYNQKFKGKATLTVDRSSSTAYMHLNSLTSEDSAVYYCTRSHLLRASWFAYWGQGTLVTVSASEVQVVETGGSLVQPGKSLKLTCATSGFTFTNAWMHWVRRSPEKQLEWVAQIKDKSNNYATYYAESVKGRFTISRDDSKSSIYLQMNSLKEEDTAIYYCRYVHYRFAYALDAWGRGTSVSVSSRTASTKGPSVFPLAPSSKSTSGGTAALGCLVKDYFPEPVTVSWNSGALTSGVHTFPAVLQSSGLYSLSSVVTVPSSSLGTQTYICNVNHKPSNTKVDKKVEPKSCDKTHTHHHHHH
Activity EC50 [ng/ml], cytotoxic assay on THP-1 with human T cells [10]: 61 ng/mL
